The source of these data is PMC13623949.

Test [1] deals with H2A.Z-containing nucleosome (H. sapiens histone octamer, H2B labeled with ATTO643) assembled on lambda-DNA (H. sapiens) (UniProt P0C0S5). As to the kind of experiment: single-molecule DNA curtains (TIRF; two-colour co-localization); ATTO643-labeled H2A.Z nucleosomes on sparsely chromatinized double-tethered lambda-DNA, washed with 350 mM NaCl; LD555-INO80 flushed in, flow stopped; DNA curtains buffer with 1 mM ATP.

In test [2] the target is S. cerevisiae wild-type INO80 complex, labeled with LD555 (S. cerevisiae) (UniProt P53115). The experiment in a line: single-molecule DNA curtains (TIRF; fluorescence intensity and photobleaching steps); LD555-labeled INO80 on double-tethered lambda-DNA; 20 mM HEPES pH 8.0, 1 mg/mL BSA, 4 mM Mg(OAc)2, 1 mM ATP, 1 mM DTT, 120 mM KGlu; 125 to 250 pM INO80 injected.

By stoichiometry N is commonly meant the number of molecules, sites or subunits per partner or assembly.

In test [1], “S. cerevisiae wild-type INO80 complex, labeled with LD555 (from UniProt P53115 1-1489; Q03940 1-463; Q12464 1-471; P53946 1-755; P32617 1-166; P60010 1-375; P80428 1-489; Q12386 1-881; P35189 1-244; P40154 1-320; Q08561 1-116; P43579 1-692; Q12345 1-250; P40060 1-125; Q03435 1-203)” registered a co-localization time, second population (short associations) of 16.6 s; a co-localization time, third population (extremely long-lived co-localizations) of 1200 s; a median interaction (co-localization) time of 15.3 s.

In test [2], “S. cerevisiae wild-type INO80 complex, labeled with LD555 (from UniProt P53115 1-1489; Q03940 1-463; Q12464 1-471; P53946 1-755; P32617 1-166; P60010 1-375; P80428 1-489; Q12386 1-881; P35189 1-244; P40154 1-320; Q08561 1-116; P43579 1-692; Q12345 1-250; P40060 1-125; Q03435 1-203) (complex; LD555 on the ybbR-tag (Sfp with LD555-CoA); LD555 on the ybbR-tag (Sfp with LD555-CoA))” displayed a percent of DNA-bound complexes that are dimers of 11% and a stoichiometry N of 2.
